Consider 27 molecules from patent US20240392020A1 (JIANGSU HENGRUI PHARMACEUTICALS, published 2024).

The EC50 is the concentration at which the effect is half-maximal.

Changes are numbered by the printed parent chain.

First the molecules themselves.
T1: hP40 (human, UniProt P29460 23-328)
T1 construct: bought
T1 sequence (looked up): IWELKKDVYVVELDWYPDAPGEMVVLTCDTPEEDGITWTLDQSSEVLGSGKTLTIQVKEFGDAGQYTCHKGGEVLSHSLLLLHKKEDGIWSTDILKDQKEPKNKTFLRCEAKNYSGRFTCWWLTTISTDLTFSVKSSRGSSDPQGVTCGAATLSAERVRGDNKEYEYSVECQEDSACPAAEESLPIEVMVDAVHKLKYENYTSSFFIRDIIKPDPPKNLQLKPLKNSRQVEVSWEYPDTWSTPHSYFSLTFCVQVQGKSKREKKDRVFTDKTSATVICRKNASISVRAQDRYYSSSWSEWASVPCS

T2: CEA on MKN45 cells (UniProt P06731 35-685)
T2 construct: whole, on cells
T2 sequence (looked up): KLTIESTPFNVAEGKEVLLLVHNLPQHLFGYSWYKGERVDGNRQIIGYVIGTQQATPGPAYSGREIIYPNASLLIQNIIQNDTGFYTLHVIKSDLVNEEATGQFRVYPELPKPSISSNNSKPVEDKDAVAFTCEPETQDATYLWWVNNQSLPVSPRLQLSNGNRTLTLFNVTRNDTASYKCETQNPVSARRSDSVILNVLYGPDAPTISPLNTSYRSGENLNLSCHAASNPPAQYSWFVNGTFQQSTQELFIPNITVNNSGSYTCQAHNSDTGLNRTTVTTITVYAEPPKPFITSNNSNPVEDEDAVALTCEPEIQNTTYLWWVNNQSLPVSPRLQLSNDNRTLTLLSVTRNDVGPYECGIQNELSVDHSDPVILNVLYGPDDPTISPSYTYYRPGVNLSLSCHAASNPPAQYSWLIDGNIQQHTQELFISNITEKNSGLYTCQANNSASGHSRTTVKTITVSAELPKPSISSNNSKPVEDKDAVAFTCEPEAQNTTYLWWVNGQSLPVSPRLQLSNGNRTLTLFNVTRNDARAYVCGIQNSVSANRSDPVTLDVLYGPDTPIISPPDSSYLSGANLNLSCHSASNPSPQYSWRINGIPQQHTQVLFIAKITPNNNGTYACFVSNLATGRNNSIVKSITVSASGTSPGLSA

B1: R10 (antibody)
heavy: not shown
light: DIQMTQSPSSLSASVGDRVTITCLASEGISSYLAWYQQKPGKAPKLLIYGANSLQTGVPSRFSGSGSATDYTLTISSLQPEDFATYYCQQSYKFPNTFGQGTKVEVKSGAPRFLTRPKAFVVSVGKDATLSSQIVGNPTPQVSWEKDQQPVAAGARFRLAQDGDLYRLTILDLALGDSGQYVSRARNAIGEAFACVGLQVDAEA
B2: R20 (antibody)
heavy: not shown
light: DIQMTQSPSSLSASVGDRVTITCLASEGISSYLAWYQQKPGKAPKLLIYGANSLQTGVPSRFSGSGSATDYTLTISSLQPEDFATYYCQQSYKFPNTFGQGTKVEVKDQPQFSGAPRFKTRPKAFVVSVGKDATLSSQIVGNPTPQVSWEKDQQPVAAGARFRLAQDGDLYRLHILDLALGDSGQYVSRARNAIGEAFACVGLQVDAEA
B3: R22 (antibody)
heavy: not shown
light: B2 light with K119R
B4: R21 (antibody)
heavy: not shown
light: B2 light with K119R, H174K
B5: B2 (antibody)
heavy: not shown
light: SSELTQDPAVSVALGQTVRVTCQGDSLRSYYASWYQQKPGQAPVLVIYGKNNRPSGIPDRFSGSSSGNTASLTITGAQAEDEADYYCSSRDSSGNHWVFGGGTELTVLSGAPRFLTRPKSYTVSVGKDASLSSQIVGNPTPQVSWEKDQQPVAAGARFRLAQDGDLYRLKILDLALGDSGQYVSRARNAIGEAFACVGLQVDAEA
B6: B3 (antibody)
heavy: not shown
light: SSELTQDPAVSVALGQTVRVTCQGDSLRSYYASWYQQKPGQAPVLVIYGKNNRPSGIPDRFSGSSSGNTASLTITGAQAEDEADYYCSSRDSSGNHWVFGGGTELTVLSEAPRFLTRPLAFVVSEGKDATLSSQIVGDPPPEVTWEKDQQPITAGARFRLAQDGDVYRLEILDLQLSDSGQYVSRARNAIGEAFACVGLQVDAEG
B7: B7 (antibody)
heavy: not shown
light: SSELTQDPAVSVALGQTVRVTCQGDSLRSYYASWYQQKPGQAPVLVIYGKNNRPSGIPDRFSGSSSGNTASLTITGAQAEDEADYYCSSRDSSGNHWVFGGGTELTVLSGAPRFLTRPLAFVVSVGKDATLSSQIVGNPTPQVSWEKDQLPVTAGARFRLAQDGDLYRLKILDLTLSDSGQYVSRARNAIGEAFACVGLEVGAEA
B8: B4 (antibody)
heavy: not shown
light: B7 light with Q149K, L150Q, T175Q, V197L, E200Q, G202D
B9: B6 (antibody)
heavy: not shown
light: B7 light
B10: B1 (antibody)
heavy: not shown
light: B5 light with K119L, S120A, Y121F, T122V, S130T
B11: B8 (antibody)
heavy: not shown
light: B7 light with A120S, F121Y, T130S, T175Q
B12: B5 (antibody)
heavy: not shown
light: B7 light
B13: U7 (antibody)
heavy: not shown
light: DIQMTQSPSSLSASVGDRVTITCRASQGISSWLAWYQQKPEKAPKSLIYAASSLQSGVPSRFSGSGSGTDFTLTISSLQPEDFATYYCQQYNIYPYTFGQGTKLEIKSGAPRFLTRPLAFVVSVGKDATLSSQIVGNPTPQVSWEKDQLPVTAGARFRLAQDGDLYRLKILDLTLSDSGQYVSRARNAIGEAFACVGLEVGAEA
B14: U4 (antibody)
heavy: not shown
light: B13 light with Q148K, L149Q, T174Q, V196L, E199Q, G201D
B15: U6 (antibody)
heavy: not shown
light: B13 light
B16: U5 (antibody)
heavy: not shown
light: B13 light
B17: U8 (antibody)
heavy: not shown
light: B13 light with A119S, F120Y, T129S, T174Q
B18: U1 (antibody)
heavy: not shown
light: B13 light with L149Q, T152A, T174A, S176G, E199Q, G201D
B19: U3 (antibody)
heavy: not shown
light: DIQMTQSPSSLSASVGDRVTITCRASQGISSWLAWYQQKPEKAPKSLIYAASSLQSGVPSRFSGSGSGTDFTLTISSLQPEDFATYYCQQYNIYPYTFGQGTKLEIKSEAPRFLTRPLAFVVSEGKDATLSSQIVGDPPPEVTWEKDQQPITAGARFRLAQDGDVYRLEILDLQLSDSGQYVSRARNAIGEAFACVGLQVDAEG
B20: U2 (antibody)
heavy: not shown
light: DIQMTQSPSSLSASVGDRVTITCRASQGISSWLAWYQQKPEKAPKSLIYAASSLQSGVPSRFSGSGSGTDFTLTISSLQPEDFATYYCQQYNIYPYTFGQGTKLEIKSGAPRFLTRPKSYTVSVGKDASLSSQIVGNPTPQVSWEKDQQPVAAGARFRLAQDGDLYRLKILDLALGDSGQYVSRARNAIGEAFACVGLQVDAEA
B21: N5 (antibody)
heavy: not shown
light: EIVLTQSPGTLSLSPGERATLSCRASQNINNRFLAWYQQRPGQAPRLLIYAASSRATGVPDRFSGSGSGTDFTLTISRLEAEDFAMYHCQQYGSFPRTFGQGTMVDIKGIPPKIEALPSDISIDEGKVLTVACAFTGEPTPEVTWSCGGRKIHSQEQGRFHIENTDDLTTLIIMDVQKQDGGLYTLSLGNEFGSDSATVNIHIRSI
B22: N1 (antibody)
heavy: not shown
light: EIVLTQSPGTLSLSPGERATLSCRASQNINNRFLAWYQQRPGQAPRLLIYAASSRATGVPDRFSGSGSGTDFTLTISRLEAEDFAMYHCQQYGSFPRTFGQGTMVDIKGILQPDPPANITVTAVARNPRWLSVTWQDPHSWNSSFYRLRFELRYRAERSKTFTTWMVKDLQHHCVIHDAWSGLRHVVQLRAQEEFGQGEWSEWSPEAMGTPW
B23: C0 (antibody, human IgG1, kappa)
heavy: not shown
light: DIVMTQSPDSLAVSLGERATINCRASESVSIIGTNLIHWYQQKPGQPPKLLIYHASNLETGVPDRFSGSGSGTDFTLTISSLQAEDVAVYYCLQSRKIPYTFGGGTKVEIKRTVAAPSVFIFPPSDEQLKSGTASVVCLLNNFYPREAKVQWKVDNALQSGNSQESVTEQDSKDSTYSLSSTLTLSKADYEKHKVYACEVTHQGLSSPVTKSFNRGEC
B24: N0 (antibody, human IgG1, kappa)
heavy: not shown
light: EIVLTQSPGTLSLSPGERATLSCRASQNINNRFLAWYQQRPGQAPRLLIYAASSRATGVPDRFSGSGSGTDFTLTISRLEAEDFAMYHCQQYGSFPRTFGQGTMVDIKRTVAAPSVFIFPPSDEQLKSGTASVVCLLNNFYPREAKVQWKVDNALQSGNSQESVTEQDSKDSTYSLSSTLTLSKADYEKHKVYACEVTHQGLSSPVTKSFNRGEC
B25: N2 (antibody)
heavy: not shown
light: EIVLTQSPGTLSLSPGERATLSCRASQNINNRFLAWYQQRPGQAPRLLIYAASSRATGVPDRFSGSGSGTDFTLTISRLEAEDFAMYHCQQYGSFPRTFGQGTMVDIKFDPVYKVKPNPPHNLSVINSEELSSILKLTWTNPSIKSVIILKYNIQYRTKDASTWSQIPPEDTASTRSSFTVQDLKPFTEYVFRIRCMKEDGKGYWSDWSEEASGIT
B26: C1 (antibody)
heavy: not shown
light: DIVMTQSPDSLAVSLGERATINCRASESVSIIGTNLIHWYQQKPGQPPKLLIYHASNLETGVPDRFSGSGSGTDFTLTISSLQAEDVAVYYCLQSRKIPYTFGGGTKVEIKGIPPKIEALPSDISIDEGKVLTVACAFTGEPTPEVTWSCGGRKIHSQEQGRFHIENTDDLTTLIIMDVQKQDGGLYTLSLGNEFGSDSATVNIHIRSI
B27: C2 (antibody)
heavy: not shown
light: B26 light

The first experiment addresses T3, hIL-5 (human, UniProt P05113 20-134).
T3 construct: bought
The experiment in a line: ELISA. A general note: In an ELISA, binding on a coated surface is turned into a signal by an enzyme label.
Method: (§1) For an antibody targeting a soluble protein, the binding activity of the antibody against the soluble protein was detected by ELISA. […] After the blocking was completed, the blocking solution was discarded; and the plate was washed 3 times with a PBST buffer (pH 7.4, PBS containing 0.1% tween-20). 100 μL of the antibody solution diluted in a gradient was added to each well, and the mixture was incubated at 37° C. for 1 h. After the incubation was completed, the plate was washed 3 times with PBST. […] The plate was washed 3 times with PBST. […] The reaction was stopped by adding 50 μL of 1 M H₂SO₄ to each well. The absorbance values at 450 nm were read on a microplate reader, the binding curves of the antibodies to an antigen were fitted with software, and the EC₅₀ values were calculated.
The molecule B1 yielded an EC50 of 3.2 nM.

Another experiment addresses T3, hIL-5. The experiment in a line: ELISA. The source holds these as a separate data set.
Method: as §1
Turning to B1, the concentration giving a half-maximal response (EC50) stood at 0.37 nM.

B2 registered an EC50 of 0.39 nM. In turn, B3 displayed a concentration for a half-maximal effect (EC50) of 0.39 nM. B4: it took 0.37 nM to reach a half-maximal effect (EC50).

The next experiment concerns the target T4, hBAFF (human, UniProt Q9Y275 134-285).
T4 construct: bought
Nature of the experiment: ELISA.
Method: as §1
For B5, the concentration for a half-maximal effect (EC50) is 0.19 nM. Consider B6, for which the EC50 came out at 0.5 nM. Turning to B7, the concentration for a half-maximal effect (EC50) worked out at 0.35 nM. Consider B8, for which the midpoint of the response, the EC50, lay at 0.25 nM. Consider B9, for which the half-maximal effective concentration (EC50) was 0.19 nM. Take B10: a half-maximal effect (EC50) was put at 0.28 nM. Molecule B11 had a concentration for a half-maximal effect (EC50) of 0.16 nM.

The molecule B12 yielded an EC50 of 0.29 nM.

The target of another experiment is T1, hP40. Nature of the experiment: ELISA.
Method: as §1
For the molecule B13, the EC50 came out at 0.07 nM.

Consider B14, for which the response was half-maximal at 0.06 nM (EC50). On the same count and under the same terms, in the case of B15 it was 0.11 nM; in that of B16, 0.11 nM.

Consider B17, for which the midpoint of the response, the EC50, lay at 0.16 nM.

Molecule B18 registered a concentration for a half-maximal effect (EC50) of 0.03 nM. B19 registered an EC50 of 0.02 nM. In the case of B20, the midpoint of the response, the EC50, lay at 0.07 nM.

Another experiment has as its target T2, CEA on MKN45 cells. Nature of the experiment: FACS, MKN45 cells. On the technique in general: Flow cytometry measures light scatter and fluorescence of single cells or particles in a stream.
In the case of B21, the 50% effective concentration (EC50) was determined as 5.24 nM. With B22, a half-maximal effect (EC50) was put at 1230 nM.

In turn, B23 came in with a concentration for a half-maximal effect (EC50) of 5.81 nM. As for B24, the EC50 was 0.82 nM. Same read-out and setting: in the case of B25 it was 766 nM; in that of B26, 17.7 nM; in that of B27, 16.5 nM.
